The values that follow come from patent US20170290876A1 (Novartis, published 2017).

In general, Kd refers to a measure of binding affinity in units of concentration. A higher Kd goes with a looser complex. One may read the koff as the first-order rate constant of dissociation. For orientation: kon means the second-order rate constant of association. Higher therefore signals faster complex formation.

Assay [1] addresses T1, human VEGF (human, UniProt P15692 207-395, biotinylated (site not stated)).
T1 construct: Biotinylated human VEGF generated internally; also called hVEGF; hVEGF-biotin
T1 sequence: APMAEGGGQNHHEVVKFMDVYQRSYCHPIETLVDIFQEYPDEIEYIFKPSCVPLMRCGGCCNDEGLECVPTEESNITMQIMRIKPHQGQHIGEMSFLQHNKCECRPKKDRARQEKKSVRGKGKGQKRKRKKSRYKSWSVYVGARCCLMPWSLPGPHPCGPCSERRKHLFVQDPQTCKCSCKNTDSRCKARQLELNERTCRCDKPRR
Briefly: Biacore SPR, hVEGF (second row labelled Y32H).

Assay [2] deals with T1, human VEGF. Briefly: Biacore SPR, hVEGF (second row labelled Y32H); the sign of the exponent is misprinted (kd/KD of the same row = 4.9e6); second row labelled Y32H (r159), not r156.
Protocol: (§1) At first, individual CDR residues were substituted and the affinity for hVEGF was measured by Biacore as described below. […] HC8T, and HC9T and the affinity of the resulting peptide-tagged Fab for both HA and hVEGF was measured by Biacore as described below (Table 17).
(§2) Affinity of optimized HA-binding peptide tags for HA and human VEGF were measured by Biacore. […] In order to determine target kinetics, two different formats were utilized. […] The second format is an anti-fab capture method in which the fab protein samples are captured and the target proteins flowed over at various concentrations.
(§3) The sample compartment which includes the analytes, ligands, and regeneration buffer, is kept at 15° C. All other running conditions were carried out at either 25° C. or 37° C. in 1×HBSE+P buffer. […] Data was collected at 10 Hz and analyzed using the Biacore T200 Evaluation Software (GE Healthcare®). This program uses a global fitting analysis method for the determination of rate and affinity constants for each interaction.
Assay [3] concerns the target T1, human VEGF. Briefly: Biacore SPR, hVEGF. (In general: SPR reads the build-up and loss of mass on a sensor chip optically.)
Protocol: as §1, §2, §3
The target of assay [4] is T1, human VEGF. Description: Biacore SPR, hVEGF; the minus sign of the exponent is missing in print (kd/ka of the same row = 3.05e-12).
Protocol: as §1, §2, §3

Changes are numbered by the printed parent chain. In names and notes the source's numbering stands.

B1: NVS4 heavy chain variant Y32H (Fab, V domains shown)
VH: EVQLVESGGGLVQPGGSLRLSCTASGFSLTDHYYMTWVRQAPGKGLEWVGFIDPDDDPYYATWAKGRFTISRDNSKNTLYLQMNSLRAEDTAVYYCAGGDHNSGWGLDIWGQGTLVTVSS
VL: EIVMTQSPSTLSASVGDRVIITCQASEIIHSWLAWYQQKPGKAPKLLIYLASTLASGVPSRFSGSGSGAEFTLTISSLQPDDFATYYCQNVYLASTNGANFGQGTKLTVLK
notes: CDR variant of NVS4; The label Y32H is printed in two rows (r156, r159) with different values
For B1, the Kd with human VEGF [1] is 0.169 nM; with human VEGF [3], 0.0204 nM. Moreover, the koff with human VEGF [1] came out at 0.000829 s⁻¹; with human VEGF [3], 0.000112 s⁻¹. For the same molecule, the results for the kon with human VEGF [2] and in the assay with human VEGF [3] were 4.91e+06 M⁻¹ s⁻¹ and 5.49e+06 M⁻¹ s⁻¹, respectively.

B2: NVS4 light chain variant E27Q (Fab, V domains shown)
VH: B1 VH with H32Y
VL: B1 VL with E27Q
notes: CDR variant of NVS4
For the molecule B2, the Kd with human VEGF [4] amounted to 0.00306 nM. In addition, in the assay with human VEGF [3], the koff worked out at 1.64e-05 s⁻¹ and the kon was 5.37e+06 M⁻¹ s⁻¹.
